Source: the RNAGym collection of RNA variant scans (doi:10.1021/acssynbio.7b00057)

B1: Pistol ribozyme (parent)
chain: GGGUCGUUGUUCCAUAAUCGCGUGGAUAUGGCACGCAAGUUUCUACCGGGCACCGUAAAUGUCCGACUGGAGCCGUUCGGGCGGCUAUAAACAGACCUCAGGCCCGAAGCGUGGCGGCACCUGCCGCCGGUGGUAAAAAAGAUCGGAAGAGCACACGUCU

Variants of: B1
Experiment: aptazyme ON/OFF ratio, guanine; higher = stronger switching; co-transcriptional cleavage with and without guanine

Variant | aptazyme ON/OFF ratio
U7C U8A G9A U10A C12A C13A | 1.19
U7C U8A G9A U10A C12A C13G | 1.18
U7C U8A G9A U10A C12A C13U | 1.26
U7C U8A G9A U10A C12U C13G | 1.14
U7C U8A G9A U10A C12U C13A | 1.15
U7C U8A G9A U10A C12U C13U | 1.28
U7C U8A G9A C12A C13G | 1.2
U7C U8A G9A C12A C13U | 1.15
U7C U8A G9A C12A C13A | 1.21
U7C U8A G9A U10G C12A C13U | 1.25
U7C U8A G9A U10G C12A C13G | 1.15
U7C U8A G9A U10G C12A C13A | 1.14
U7C G9U U11A | 1.41
U7C G9U U11C | 1.12
U7C G9U U11G | 1.35
U7C U8A G9A U10G U11A C12U | 1.01
U7C U8A G9A U10G U11A C12A | 1.15
U7C U8A G9A U10G U11A C12G | 1.16
U7C G9U U10G U11C C12U C13U | 1.19
U7C G9U U10G U11C C12U C13G | 1.05
U7C G9U U10G U11C C12U C13A | 1.19

Variant | aptazyme ON/OFF ratio
U7C U8A C13U | 1.71
U7C U8A C13A | 1.31
U7C U8A C13G | 1.11
U7C G9U U11C C12U C13U | 1.13
U7C G9U U11C C12U C13A | 1.12
U7C G9U U11C C12U C13G | 1.05
U7C U8A G9A U10C U11G | 1.32
U7C U8A G9A U10C U11A | 1.23
U7C U8A G9A U10C U11C | 1.02
U7C U8A G9A U10A U11A C12A C13A | 1.24
U7C U8A G9A U10A U11A C12A C13U | 1.18
U7C U8A G9A U10A U11A C12A C13G | 1.18
U7C U8A G9A U10A U11G C12U C13A | 1.21
U7C U8A G9A U10A U11G C12U C13U | 1.22
U7C U8A G9A U10A U11G C12U C13G | 1.17
U7C U8A G9A U10C U11A C12U C13U | 1.11
U7C U8A G9A U10C U11A C12U C13A | 1.17
U7C U8A G9A U10C U11A C12U C13G | 1.15
U7C U8A G9A U10C C12U C13U | 1.26
U7C U8A G9A U10C C12U C13A | 1.11
U7C U8A G9A U10C C12U C13G | 1.11

Variant | aptazyme ON/OFF ratio
U7C G9U U10G U11C C12U | 1.14
U7C G9U U10G U11C C12G | 1.09
U7C G9U U10G U11C C12A | 1.2
U7C U8A G9A U10C U11G C13U | 1.1
U7C U8A G9A U10C U11G C13A | 1.15
U7C U8A G9A U10C U11G C13G | 1.13
U7C U8A G9A U10A U11G C13A | 1.16
U7C U8A G9A U10A U11G C13G | 1.02
U7C U8A G9A U10A U11G C13U | 1.25
U7C G9U U11G C13A | 1.21
U7C G9U U11G C13U | 1.15
U7C G9U U11G C13G | 1.03
U7C U8A G9A U10C U11G C12U C13A | 1.17
U7C U8A G9A U10C U11G C12U C13U | 1.26
U7C U8A G9A U10C U11G C12U C13G | 1.27
U7C U8A G9A C12G C13G | 1.22
U7C U8A G9A C12G C13U | 1.17
U7C U8A G9A C12G C13A | 1.17
U7C G9U U10C U11C C13U | 1
U7C G9U U10C U11C C13G | 1.06
U7C G9U U10C U11C C13A | 1

Variant | aptazyme ON/OFF ratio
U7C U8A G9A U10G U11A C13U | 1.03
U7C U8A G9A U10G U11A C13G | 1.05
U7C U8A G9A U10G U11A C13A | 1.04
U7C U8A G9A U10A U11A C12U C13G | 1.17
U7C U8A G9A U10A U11A C12U C13A | 1.2
U7C U8A G9A U10A U11A C12U C13U | 1.13
U7C U8A G9A U10A U11C C12A C13A | 1.17
U7C U8A G9A U10A U11C C12A C13U | 1.16
U7C U8A G9A U10A U11C C12A C13G | 1.12
U7C U8A G9A U10C U11A C12A C13A | 1.13
U7C U8A G9A U10C U11A C12A C13G | 1.1
U7C U8A G9A U10C U11A C12A C13U | 1.15
U7C G9U U10C U11C C12U C13U | 1.05
U7C G9U U10C U11C C12U C13A | 1.02
U7C G9U U10C U11C C12U C13G | 1.02
U7C U8A G9A U10C U11G C12G C13U | 1.11
U7C U8A G9A U10C U11G C12G C13G | 1.12
U7C U8A G9A U10C U11G C12G C13A | 1.24
U7C G9U U10G C12A C13U | 1.24
U7C G9U U10G C12A C13G | 1.13
U7C G9U U10G C12A C13A | 1.09
